In patent publication US20230348614A1 (VISTERRA, published 2023):
Substitutions are numbered along the chain they refer to.

Legend:
D210A = target: T1, D210A (Homo sapiens, UniProt P18827); assay: alanine scan: flow cytometry on HEK-293T cells expressing the mutant clone, 4320 Fab 0.50 ug/mL, normalised to WT CD138; Range %WT Binding 15; Normalized 4320 vs. BB4 56.7
T1 construct: clone of the alanine scanning library on HEK-293T cells; m17 with one substitution; also called CD138 D210A
T1 sequence (CD138 (SDC1), full length, point mutant, looked up): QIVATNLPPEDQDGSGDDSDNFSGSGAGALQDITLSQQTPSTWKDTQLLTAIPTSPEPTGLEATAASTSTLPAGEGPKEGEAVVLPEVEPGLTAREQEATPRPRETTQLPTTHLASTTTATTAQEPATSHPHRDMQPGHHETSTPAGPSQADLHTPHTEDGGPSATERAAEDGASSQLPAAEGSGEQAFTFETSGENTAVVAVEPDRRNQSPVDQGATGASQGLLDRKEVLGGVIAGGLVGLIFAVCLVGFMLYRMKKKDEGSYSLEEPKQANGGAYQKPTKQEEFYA
Protocol: (§1) Serial dilutions of each MAb were tested for immunoreactivity against cells expressing target protein (WT) or vector alone. Validation of target expression and optimization of detection and binding of anti-CD138 antibodies both by flow cytometry was completed in replicate (N=4). The optimal screening concentration for each MAb was determined based on the raw signal values and signal-to-background calculations specifically optimized for each test article. Optimized parameters included the use of 10% goat serum as blocking reagent. Primary antibody staining was for 60 minutes at 25° C. Wash buffer include phosphate buffered saline (divalent metal ion free), pH 7.4. […] Secondary antibodies were diluted 1:400 and incubated for 30 minutes at 25° C.
(§2) Library screens of very-high-affinity mAbs can fail to yield critical residues for antibody binding due to deficiencies of such an assay to detect and differentiate critical vs. less critical binding based on affinity and quantification of cell binding. One common approach in the literature is the use of monovalent antibody derived fragments such as Fab usually weakens binding sufficiently to allow identification of critical residues for binding. […] Binding of each test Ab to each mutant clone in the alanine scanning library was determined, in duplicate, and likewise evaluated by flow cytometry.

P167A = target: T2, P167A (Homo sapiens, UniProt P18827); assay: alanine scan: flow cytometry on HEK-293T cells expressing the mutant clone, 4320 Fab 0.50 ug/mL, normalised to WT CD138; Range %WT Binding 46; Normalized 4320 vs. BB4 50.9
T2 construct: clone of the alanine scanning library on HEK-293T cells; m17 with one substitution; also called CD138 P167A
T2 sequence (CD138 (SDC1), full length, point mutant, looked up): T1 sequence (CD138 (SDC1), full length, point mutant, looked up) with P145A, A188D
Protocol: as §1, §2

A168S = target: T3, A168S (Homo sapiens, UniProt P18827); assay: alanine scan: flow cytometry on HEK-293T cells expressing the mutant clone, 4320 Fab 0.50 ug/mL, normalised to WT CD138; Range %WT Binding 3; Normalized 4320 vs. BB4 57.9
T3 construct: clone of the alanine scanning library on HEK-293T cells; m17 with one substitution (alanine changed to serine); also called CD138 A168S
T3 sequence (CD138 (SDC1), full length, point mutant, looked up): T1 sequence (CD138 (SDC1), full length, point mutant, looked up) with A146S, A188D
Protocol: as §1, §2

G160A = target: T4, G160A (Homo sapiens, UniProt P18827); assay: alanine scan: flow cytometry on HEK-293T cells expressing the mutant clone, 4320 Fab 0.50 ug/mL, normalised to WT CD138; Range %WT Binding 24; Normalized 4320 vs. BB4 60.2
T4 construct: clone of the alanine scanning library on HEK-293T cells; m17 with one substitution; also called CD138 G160A
T4 sequence (CD138 (SDC1), full length, point mutant, looked up): T1 sequence (CD138 (SDC1), full length, point mutant, looked up) with G138A, A188D
Protocol: as §1, §2

G169A = target: T5, G169A (Homo sapiens, UniProt P18827); assay: alanine scan: flow cytometry on HEK-293T cells expressing the mutant clone, 4320 Fab 0.50 ug/mL, normalised to WT CD138; Range %WT Binding 2; Normalized 4320 vs. BB4 44.4
T5 construct: clone of the alanine scanning library on HEK-293T cells; m17 with one substitution; also called CD138 G169A
T5 sequence (CD138 (SDC1), full length, point mutant, looked up): T1 sequence (CD138 (SDC1), full length, point mutant, looked up) with G147A, A188D
Protocol: as §1, §2

S151A (Homo sapiens) = S151A (Homo sapiens) (UniProt P18827); assay: alanine scan: flow cytometry on HEK-293T cells expressing the mutant clone, 4320 Fab 0.50 ug/mL, normalised to WT CD138; Range %WT Binding 6; Normalized 4320 vs. BB4 24.5

- Mean %WT Binding (D210A): 42.7 %WT
- Mean %WT Binding (P167A): 56.4 %WT
- Mean %WT Binding (A168S): 44.9 %WT
- Mean %WT Binding (G160A): 59.7 %WT
- Mean %WT Binding (G169A): 13.2 %WT
- Mean %WT Binding (S151A (Homo sapiens)): 8.9 %WT
B1: Fab fragment of mAb 4320 (Fab, V domains shown)
VH: QVQLVQSGAEVKKPGASVKVSCKASGYSFSSYYMHWVRQAPGQGLEWMGTIHPSDSTTNYNQKFQGRVTMTVDTSTRTAYMELSSLRSEDTAVYYCANFVYWGQGTTVTVSS
VL: DIVMTQTPLSLSVTPGQPASISCKSSKSLLYKDGKTYLNWFLQKPGQSPQLLIYVVSTRASGVPDRFSGSGSGTDFTLKISRVEAEDVGVYYCQQLVEYPYTFGQGTKLEIKR
modifications: N-terminal Q1 observed as pyroglutamic acid (PCA) in the 138-2-5 complex
notes: In the crystal structures heavy chain residues 1-213 were traced; also called Fab4320
